# Source: the MegaScale stability set (Tsuboyama et al. 2023)
# B1: EHEE_rd4_0086 (parent)
# chain: EIHIRTNGEEQARKVYKMLAKRNYDVKIEQHNGQWVVTAS
# Variants of: B1
# Experiment: folding stability dG (cDNA display proteolysis); higher = more stable
# Conditions: PBS, room temperature
row,Variant,folding stability dG [kcal/mol]
1,EIHIRTNGEEQARKVYKMLAKRNYDRKIEQHNGQWVVTAS,-0.177
2,EIHIRTNGEEQARKVYKMLAKRNYDWKIEQHNGQWVVTAS,0.204
3,EIHIRTNGEELARKVYKMLAKRNYDVKIEQHNGQWVVTAS,1.89
4,EIHIRTNGEEHARKVYKMLAKRNYDVKIEQHNGQWVVTAS,1.96
5,EIHIRTNGEENARKVYKMLAKRNYDVKIEQHNGQWVVTAS,1.35
6,EIHIRTNGEEQAEKVYKMLAKRNYDVKIEQHNGQWVVTAS,1.04
7,EIHIRTNGEEQANKVYKMLAKRNYDVKIEQHNGQWVVTAS,1.36
8,EIHIRTNGEEQARKVYKFLAKRNYDVKIEQHNGQWVVTAS,2.25
9,EIHIRTNGEEQARKVYKKLAKRNYDVKIEQHNGQWVVTAS,1.37
10,EIHIRTNGEEQARKVYKHLAKRNYDVKIEQHNGQWVVTAS,1.54
11,EIHIRTNGEEQARKVYKELAKRNYDVKIEQHNGQWVVTAS,1.67
12,EIHIRTNGEEQARKVYKGLAKRNYDVKIEQHNGQWVVTAS,0.727
13,EIHIRTNGEEQARKVYKALAKRNYDVKIEQHNGQWVVTAS,1.84
14,EIHIRTNGEEQARKVYKILAKRNYDVKIEQHNGQWVVTAS,1.81
15,EIHIRTNGEEQARKVYCMLAKRNYDVKIEQHNGQWVVTAS,3.19
16,EIHIRTNGEEQARKVYGMLAKRNYDVKIEQHNGQWVVTAS,1.33
17,EIHIRTNGEEQARKVYFMLAKRNYDVKIEQHNGQWVVTAS,1.86
18,EIRIRTNGEEQARKVYKMLAKRNYDVKIEQHNGQWVVTAS,2.4
19,EISIRTNGEEQARKVYKMLAKRNYDVKIEQHNGQWVVTAS,2
20,EIFIRTNGEEQARKVYKMLAKRNYDVKIEQHNGQWVVTAS,2.2
21,EIVIRTNGEEQARKVYKMLAKRNYDVKIEQHNGQWVVTAS,2.85

row,Variant,folding stability dG [kcal/mol]
1,EIAIRTNGEEQARKVYKMLAKRNYDVKIEQHNGQWVVTAS,1.64
2,EIHWRTNGEEQARKVYKMLAKRNYDVKIEQHNGQWVVTAS,1.65
3,EIHGRTNGEEQARKVYKMLAKRNYDVKIEQHNGQWVVTAS,-0.953
4,EIHIRTNGESQARKVYKMLAKRNYDVKIEQHNGQWVVTAS,1.93
5,EIHIRTNGEGQARKVYKMLAKRNYDVKIEQHNGQWVVTAS,1.64
6,EIHIRTNGEEQARKVYKMLAKRRYDVKIEQHNGQWVVTAS,1.68
7,EIHIRTNGEEQARKVYKMLAKRGYDVKIEQHNGQWVVTAS,3.46
8,EIHIRTNGEEQARKVYKMLAKRYYDVKIEQHNGQWVVTAS,2.86
9,EIHIRTNGEEQARKVYKMLAKREYDVKIEQHNGQWVVTAS,1.12
10,EIHIRTNGEEQARKVYKMLAKRKYDVKIEQHNGQWVVTAS,1.68
11,EIHIRTNGEEQARKVWKMLAKRNYDVKIEQHNGQWVVTAS,1.38
12,EIHIRTNGEEQARKVMKMLAKRNYDVKIEQHNGQWVVTAS,2.15
13,EIHIRTNGEEQARMVYKMLAKRNYDVKIEQHNGQWVVTAS,1.87
14,EIHIRTNGEEQARSVYKMLAKRNYDVKIEQHNGQWVVTAS,1.34
15,EIHIRTNGEEQARKVYKMLAKRNYAVKIEQHNGQWVVTAS,1.96
16,EIHIITNGEEQARKVYKMLAKRNYDVKIEQHNGQWVVTAS,2.4
17,EIHIQTNGEEQARKVYKMLAKRNYDVKIEQHNGQWVVTAS,1.52
18,EIHIATNGEEQARKVYKMLAKRNYDVKIEQHNGQWVVTAS,1.53
19,EIHIWTNGEEQARKVYKMLAKRNYDVKIEQHNGQWVVTAS,2.43
20,EIHIRTNGEEQARKVYKMLARRNYDVKIEQHNGQWVVTAS,1.95
21,EIHIRTNGEEQARKVYKMLANRNYDVKIEQHNGQWVVTAS,1.77

row,Variant,folding stability dG [kcal/mol]
1,EIHIRTNGEEQARKVYKMLAFRNYDVKIEQHNGQWVVTAS,1.7
2,EIHIRTNGEEQARKVYKMLAARNYDVKIEQHNGQWVVTAS,2.4
3,EIHIRTNGEEQARKVYKMLAGRNYDVKIEQHNGQWVVTAS,1.82
4,EIHIRTNGEEQARKVYKMLAVRNYDVKIEQHNGQWVVTAS,1.63
5,EIHIRTNGEEQARKVYKMLAKRNYDVGIEQHNGQWVVTAS,0.682
6,EIHIRTNGEEQARKVYKMLAKRNYDVKIEQHNGQWVVTKS,0.724
7,EIHIRTNGEEQARKVYKMLAKRNYDVKIEQHNGQWVVTPS,0.297
8,EIHIRTNGEEQARKVYKMLAKRNYDVKIEQHNGQWVVTES,0.112
9,EIHIRTNGEEQARKVYKMLAKRNYDVKIEQHNGQWVVTDS,0.179
10,EIHIRTNGEEQLRKVYKMLAKRNYDVKIEQHNGQWVVTAS,0.213
11,EIHIRTNGEEQCRKVYKMLAKRNYDVKIEQHNGQWVVTAS,2.51
12,EIHIRTNGEEQQRKVYKMLAKRNYDVKIEQHNGQWVVTAS,-0.947
13,EIHIRTNGEEQVRKVYKMLAKRNYDVKIEQHNGQWVVTAS,-0.114
14,EIHIRTEGEEQARKVYKMLAKRNYDVKIEQHNGQWVVTAS,1.69
15,EIHIRTSGEEQARKVYKMLAKRNYDVKIEQHNGQWVVTAS,1.95
16,EIHIRTMGEEQARKVYKMLAKRNYDVKIEQHNGQWVVTAS,1.69
17,EIHIRTWGEEQARKVYKMLAKRNYDVKIEQHNGQWVVTAS,2.08
18,EIHIRTAGEEQARKVYKMLAKRNYDVKIEQHNGQWVVTAS,1.95
19,EIHIRTFGEEQARKVYKMLAKRNYDVKIEQHNGQWVVTAS,2.03
20,EIHIRTDGEEQARKVYKMLAKRNYDVKIEQHNGQWVVTAS,1.82
21,EIHIRTYGEEQARKVYKMLAKRNYDVKIEQHNGQWVVTAS,1.99
